Assay results as given in paper doi:10.1101/2025.11.23.690026, “A systematic interactome of SET1C expands its functional landscape and identifies candidate regulatory connections” (bioRxiv, 2025).

Target: T1, reconstituted SET1C (S. cerevisiae, UniProt P38827 1-1080; P39706 1-426; P36104 1-329; P38123 1-315; P43132 1-505; Q03323 …)
T1 construct: Set1, S. cerevisiae (FLAG-Set1); Swd1, untagged subunit; Swd2, untagged subunit; Swd3, untagged subunit; Bre2, untagged subunit; Sdc1, untagged subunit; Spp1, untagged subunit; Shg1, untagged subunit; also called full-length SET1C; purified SET1C; source: Sf9, coinfected with baculoviruses, purified (M2 agarose); copies: + + + + + + +
Test: pull-down; GST-tagged Snf2 fragments (250 nM) with SET1C or C762SET1C (25 nM) on glutathione-Sepharose 4B, 0.2 mg/ml BSA, 20 mM Tris-Cl pH 7.9, 150 mM NaCl, 0.1% NP-40, 4 C, 3 hours; immunoblot
Settings: both partners purified

- binding result: binds
B1: GST-Snf2C-AT-hook (domain or fragment, S. cerevisiae, UniProt P22082 1384-1547, looked up)
chain: ARKQRTKKEDKSEAIDGNGEIKGENIDADNDGPRINNISAEDRADTDLAMNDDDFLSKKRKAGRPRGRPKKVKLEGSENSEPPALESSPVTGDNSPSEDFMDIPKPRTAGKTSVKSARTSTRGRGRGRGRGRGRGRGRGRPPKARNGLDYVRTPAAATSPIDIR
notes: Snf2, S. cerevisiae, AT-hook region 1384-1547; also called Snf2-AT-hook; GST-Snf2-AT-hook; source: recombinant, purified GST fusion (E. coli BL21 by the general methods)
